Results on four molecules are retold here after publication PMC8809517, “Cofactor-independent RNA editing by a synthetic S-type PPR protein”.

What all share (assay): high-throughput RNA pulldown from lysate on Ni-NTA beads; HRP: 50 mM Tris pH 8, 150 mM NaCl, 1 mM beta-mercaptoethanol, 50 ug/ml BSA, 3 ug/ml yeast RNA, 0.5% heparin; ITC and FP: Tris pH 8, 200 mM KCl, 5% glycerol; MST: 50 mM Tris pH 8, 200 mM NaCl, 1 mM DTT, BSA, heparin, 0.05% Tween 20
What all share (conditions): tags: N-terminal His-eGFP

The target of data set [1] is T1, GFP-9S library array, motif 4 ND N98P;D124I (synthetic construct, N98P;D124I).
T1 chain: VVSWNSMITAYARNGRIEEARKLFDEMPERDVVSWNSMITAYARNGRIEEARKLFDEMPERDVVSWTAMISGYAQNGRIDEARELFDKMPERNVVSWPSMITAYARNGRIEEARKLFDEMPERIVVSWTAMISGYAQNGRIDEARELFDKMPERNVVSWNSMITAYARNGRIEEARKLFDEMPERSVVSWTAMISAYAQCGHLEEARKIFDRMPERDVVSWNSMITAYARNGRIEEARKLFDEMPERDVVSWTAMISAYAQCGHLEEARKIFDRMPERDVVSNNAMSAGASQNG

The target in data set [2] is T2, GFP-9S library array, motif 4 ND N98Q;D124L (synthetic construct, N98Q;D124L).
T2 chain: T1 chain with P98Q, I124L

For data set [3], the target named is T3, GFP-9S library array, motif 4 ND N98G;D124N (synthetic construct, N98G;D124N).
T3 chain: T1 chain with P98G, I124N

Data set [4] deals with T4, GFP-9S library array, motif 4 ND N98C;D124M (synthetic construct, N98C;D124M).
T4 chain: T1 chain with P98C, I124M

The target of data set [5] is T5, GFP-9S library array, motif 4 ND D124P (synthetic construct, D124P).
T5 chain: T1 chain with P98N, I124P

Numbering of substitutions follows the chain as printed.

By Kd is commonly meant a measure of binding affinity in units of concentration. The low end stands for higher affinity, the high end for lower affinity. Regarding AUUAUACGUGA (ssRNA) [IR-rpoA-U], the dissociation constant Kd in data set [1] (label: 5' IRDye 800CW) amounted to 187 nM; in data set [2] (label: 5' IRDye 800CW), 261 nM; in data set [3] (label: 5' IRDye 800CW) it was 82.7 nM; in data set [4] (label: 5' IRDye 800CW), 179 nM; in data set [5] (label: 5' IRDye 800CW), 154 nM.
For the molecule AUUACACGUGA (ssRNA) [Cy5-rpoA], the Kd in data set [1] (label: 5' Cy5) was 109 nM; in data set [2] (label: 5' Cy5), 122 nM; in data set [3] (label: 5' Cy5) it was 155 nM; in data set [4] (label: 5' Cy5), 90.5 nM; in data set [5] (label: 5' Cy5), 123 nM.
For AUUAGACGUGA (ssRNA) [Cy5-rpoA-G] the same measures were 127 nM, 84.1 nM, 276 nM, 113 nM and 158 nM.
For the molecule AUUAAACGUGA (ssRNA) [IR-rpoA-A], the Kd in data set [1] (label: 5' IRDye 800CW) is 272 nM; in data set [2] (label: 5' IRDye 800CW), 155 nM; in data set [3] (label: 5' IRDye 800CW) it was 41.2 nM; in data set [4] (label: 5' IRDye 800CW) it was 266 nM; in data set [5] (label: 5' IRDye 800CW), 290 nM.
